From IntAct's records for PubMed 17167415

B1: DNA replication regulator SLD3 (Saccharomyces cerevisiae), P53135 (parent)
chain: METWEVIASVKEATKGLDLSLDHPLIIKSEDVPSNILQLLQQKNRRQLKHICMKSRKEYFLLEEYGPGFWVKWPYNYFNGYSLPERRTEVVTTVERERAKRETLKTWDELKFKELLHLWSEEPKGSCKLEKDKDLKLDMNPPDMKGESKINDYYSDPKEYIESKYYDALFSIHTPLAYFVKSNLVRLKNTCRTKYGSDSYKIAYQAMLQKFLLSIVQFKDRHDNRLLLEPFSSPIADEKRKNCLTKFVIQDENKNSSTIADLCVVLKSREIKLQILLLLEIIGLNDLDWNFRDFEKKYKLKLKKRSLNLTKKGLVRRRSKKKTSEKDKGIERITTSLDYCEQLDLYLDRACILDILLSSETPNPDAIEASNGTIQEHKKNILDKSKEASLVGFINYVLIPYFNKKVPHAVEFIIQKLKGPSMRPKRALKKVNDSTNVSSPNTVETYNRLSTSQRASRSSIINSVPSSPALRRVDANLFSRKSIASPTPELLNSRTNSNLNEFLESETRSLKRPSQLGRTKSDLTMNHLQKRQFSVSDLSTTRVPNSSTITLKTPFSHSTINAYKTMNNSFRRVGKRKDINETIRLHERVDSEENVQVQATPAVKKRTVTPNKKAQLQSIIESPLNFKDDDTHEGRKNTSNITSTPTNKPPENSSKRRVRRRLFAPEST
partner: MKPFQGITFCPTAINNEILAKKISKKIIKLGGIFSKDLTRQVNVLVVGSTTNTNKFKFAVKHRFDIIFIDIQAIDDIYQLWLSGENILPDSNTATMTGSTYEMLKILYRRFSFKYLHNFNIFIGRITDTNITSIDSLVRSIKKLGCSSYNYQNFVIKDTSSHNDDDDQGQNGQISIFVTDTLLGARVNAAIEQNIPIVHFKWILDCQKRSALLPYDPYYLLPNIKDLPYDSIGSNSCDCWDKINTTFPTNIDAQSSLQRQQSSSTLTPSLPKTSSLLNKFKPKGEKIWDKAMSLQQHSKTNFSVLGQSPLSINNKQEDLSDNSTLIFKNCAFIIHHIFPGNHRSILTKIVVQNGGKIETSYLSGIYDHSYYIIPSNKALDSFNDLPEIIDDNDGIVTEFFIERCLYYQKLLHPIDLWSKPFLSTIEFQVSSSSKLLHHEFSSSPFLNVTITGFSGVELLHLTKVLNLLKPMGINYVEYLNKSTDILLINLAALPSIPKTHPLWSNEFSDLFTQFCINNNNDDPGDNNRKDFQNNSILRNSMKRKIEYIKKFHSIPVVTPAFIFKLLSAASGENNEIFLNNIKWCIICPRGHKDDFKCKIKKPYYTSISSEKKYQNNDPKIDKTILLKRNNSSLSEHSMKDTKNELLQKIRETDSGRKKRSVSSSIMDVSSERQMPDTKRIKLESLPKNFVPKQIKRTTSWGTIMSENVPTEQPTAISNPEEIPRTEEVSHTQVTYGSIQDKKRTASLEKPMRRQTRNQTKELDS

Variants of: B1
Settings: with dpb11_yeast DPB11, P47027

effect of a mutation on the interaction	Variant
disrupting interaction strength	T600A;S622A
